Source: patent US6461867

Molecular target: VSV-7 peptide (Vesicular stomatitis virus)

B1: soluble H-2K^b (K^bsol), empty heterodimer of truncated K^b heavy chain and murine β-2 microglobulin (other)
alpha: GPHSLRYFVTAVSRPGLGEPRYMEVGYVDDTEFVRFDSDAENPRYEPRARWMEQEGPEYWERETQKAKGNEQSFRVDLRTLLGYYNQSKGGSHTIQVISGCEVGSDGRLLRGYQQYAYDGCDYIALNEDLKTWTAADMAALITKHKWEQAGEAERLRAYLEGTCVEWLRRYLKNGNATLLRTDSPKAHVTHHSRPEDKVTLRCWALGFYPADITLTWQLNGEELIQDMELVETRPAGDGTFQKWASVVVPLGKEQYYTCHVYHQGLPEPLTLRW
beta: IQKTPQIQVYSRHPPENGKPNILNCYVTQFHPPHIEIQMLKNGKKIPKVEMSDMSFSKDWSFYILAHTEFTPTETDTYACRVKHASMAEPKTVYWDRDM
Kd: 53 nM
